Reference: the supplement of paper PMC9170038

What follows are sequences tested on K4 kissing-loop RNA reporter (assay: apparent KD of K4 kissing-loop reporter; higher = weaker reporter binding). Conditions: Eterna round: R107; input ligand: FMN 200 uM.
Description: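 RNA-MaP round R107: designed RNA switches with theophylline, tryptophan, arginine or FMN aptamers are transcribed on-chip within common flanks. They are titrated with a labelled K4 kissing-loop RNA reporter in RNA-MaP buffer (100 mM Tris pH 7.5, 80 mM KCl, 4 mM MgCl2), without ligand or with the indicated ligand. Median apparent KD per design.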
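Note: bound reporter read as fluorescence of individual clusters on recovered sequencing chips by microscopy, with normalized cluster intensities fitted with a binding model.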

Sequence | apparent KD of K4 kissing-loop reporter
UGUGGAGAAUAUGAUACCAGCAGUGAGAGAGAGGAAGUAUAGUGAUGUUAUAUGAGAGAAUGCCCUUGGCAGCAUAAGAAGAAGG [SSTheophylB.D] | 216 nM
UCUUGCGGCGCAGGAUAUCCGUCUGUCUCCUGCGUCAUUCUGCAGUGAUGUUGCAGGUGACGGAUAGGAGAAGGGCGAACGUACA [Diinonorce] | 133 nM
AAGUCAUAGGCAGGAUAUGCAUAGUAAUAAGGCAAUAUCUACGUAUAGAGUGAUGUUUUGUACCAGGCAGAAGGGCUACAUCAGU [FMN B Excl V9 (+4A/C)] | 635 nM
AAUAGGGAGUGAUGUUCCCUCACUUAUGAUACCAGUGCCAUCGGACACCCUUGGCAGCAUACGGGCAGUGAUGUUGUUCUUGGAA [Exclusion Theophylline A GF 25] | 129 nM
GAAUAAUAUGUACCAGUGAUGUUGGUACAACGAGGACCGGUACGGCCGCCACUCGGAUACGAGUGGAUACAUCACUGACCAUUCG [(H1)-(H2)-(Trp1)-(Trp2)-(T)'-(H)'-(T)''_Design9] | 326 nM
GCGCGUCAUGUCAGCGGUGACACUGUCGAUACCAGCGCCGGAAGGCGCCCUUGGCAGCGACGUGCUGGAGUGAUGUUCCAGCGUG [#2 Exclusion - Theophylline A Attempt #26 (HarryS)] | 197 nM
CCCUCACGAGUGAUGUUCGUAGGGUACAGUCAGGAUAUCAUGCGGUUGAGAAGGGACAGAGAAGGCGGCGACGGGUUGCUUAUCU [Atenus] | 206 nM
GAUUCAGUGAUGUUGGAAGGCGAGCGGGAUACCAGCCAAGACUCAGGCCCUUGGCAGCCCACAUAUCCCACGUAGAUAGUAGCUC [Same State - Theophylline A (Freestyle 13)] | 230 nM
CGGUACGUCGCAGGAUAUGUAAAUGUAAGUGAUGUUUACAUACCAUGCUGGCGAAAGCCAGCAUGGACAGAAGGGCGACGUACCG | 111 nM
AAUUUGUAUUUAUUCUUUAAAUGUUCAGAAGGAGCGUGAAUUAUCACAGGUAGGUCGCUGAGCUAGUGAUGUUAGCUAUACACUA [#01 K4 Arginine A Exclusion] | 98.5 nM
GUACGCUCCCGAGUGAUGUUCGGUAAUCGCUAGGAUAUCGCUUUUGCGAGAAGGAGCGGAAUGAGGAAACUCGUUCUGAGUGUAC [FMN A 26] | 300 nM
CCAAGGUGCUUCUGUUCAGUGAUGUUGGUACGAGGACCGGUACGGCCGCCACUCGCCGUACAAUCGCUAGUUAAUCAUUGGCAAG [theeternabot_exclusion_KL_Trp_A_40] | 667 nM
AGUGGACGUGUCUAGAGUGAUGUUCCGGAUACCAGACACGAAAGUGUCCCUUGGCAGCCGGAGUGAUGUUCUGGCGUUCACUAAA [Omei KL Theo A Exc B v6] | 647 nM
AGACUACCACACUGUCAAUAGACAGUGUACUAGGAUAUGCUGAUAAGCAGAAGGAGUGAUGUUCCUCGGUAGUCAAUAAAAUAAU [FmnAX 13 U28+C67] | 220 nM
CCUAUCUCAUACGAUACCAGUCUAUUAAAACGAGUGAUGUUCGAAUAUUUGCCAUAUAAUGACCCUUGGCAGCGUAUGGGAUAGG [Ex Theophylline B K4 9] | 221 nM
UGUGUACCGGGAAGGAGCGUGAAUGAGAAUGGAUAUAGUGAUGUUAUAUAUACGAACGAAUCGCAGGUAGGUCGCCCGGAUCCCU [SSArgB.Y] | 418 nM
AGUACGGACGCGGCCGCCACUCAGAAGAAGACGGUAGUGAUGUUACUGAUGGUGAGAACAAUAAAGAGGACCGGGUGUCGUGCAA [#06 K4 Tryptophan B Same State] | 324 nM
UGUUAUGUAUCAGGAUAUUAGUGAUGUUUGUUUAUGUUAGUGAUGUUGAUAUUUGUUUUAUGUAUUUAAGAAGGGAUUGAGAAGU [ffcfxmullin] | 62.1 nM
GAUUCAGUGAUGUUGGAAGGCGAGCGGGAUACCAGCCAAGACUCAGGCCCUUGGCAGCCCACAUAUCCCAGGUAGAUAGUAGCUC [Same State - Theophylline A (Freestyle 12)] | 168 nM
UGUAUGGACUGAAGGAGCGGUAUAUAAACUGAGUGAUGUUCGGCAGAUAAAGGCGCAAGCCACCAGGUAGGUCGCAGUCCAUACU [KL-SSArg B2] | 453 nM
AUUUUUUUAUCAGGAUAUUAGUGAUGUUUGUUUUUGUUAGUGAUGUUGAUAUUUGUUUUAUGUAUUUAAGAAGGGAUUGAGAUGU [sfsmullin] | 46.4 nM
GGUAGCAUGGCGGCCGCCACUUCAUAUGGAGUGAUGUUCCAGCAUCUUAUAAGACUGAGGUGAGGAAGGACCGGGCCAUGCUACC | 635 nM

Sequence | apparent KD of K4 kissing-loop reporter
AUUAUAUAGGCGGCCGCCACUAGUGAUGUUAGUGACUUUAUGAAAACAUAAAGAAUAAAAUAAUAUAGGACCGGGCCAUAAUAUU [AstrosExTryB#5] | 475 nM
UAGAGUCACAAGACAGUGAUGUUGUCUACUGAGGAUAUCAUGAAUAUGAGAAGGCAGUGUUGGAGGUCUCUAACAACAGACUCUG [FMN A SS t3] | 237 nM
UUUCUACCGGGAAGGAGCGUGAAUGAUAAUGGAUAUAGUGAUGUUAUAUAUACGAACGAAUCGCAGGUAGGUCGCCCGGAUGACU [SSArgB.T] | 586 nM
AAUAUAGUGAUGUUAUAUAAGAAGGAGUUACGAGGACCGGUACGGCCGCCACUCGAAACGAGUGAGGGCUUGGGAGAUUGGGCCC [SSTryptA.I] | 404 nM
GCCGUAGUUGGAAGGAGCGUGAAUGGCCUCUAUCCAAAGUGAUGUUUUGUUGAAGACUGUUCACAGGUAGGUCGCCAACUACGGC [#09 K4 Arginine B Same State] | 145 nM
AAUAAUGAUGUUUAGGAAAGUAAAAUGGAAGGAGCGUGCGAAAGCACAGGUAGGUCGCCAGUGAUGUUGGAACCUGAGCAUCAAA [#SwitchBubble 19 #K4Late] | 907 nM
UGUCAUUGGUCGGCCGCCACUCCAUAAAGAGUGAUGUUCUGAAAGACGGAUCGAAAGAUCUGUCGGAGGACCGGGACCGAUGACU [FiskerMod 3 - Jieux - Same State - Tryptophan B] | 1310 nM
GGACCACCAGUGAUGUUGGAGAUAAACUCCAAGGAUAUGACGAAAGUCAGAAGGUGGUAAUAAGACGUCAAAGACGUCAGGUCCA [FmnA 20 #SwitchBubble #K4Early] | 372 nM
UAUGUACACGGGUAGUUGUACAUCGAGGAAGGAGCGUGCGCAGGCACAGGUAGGUCGCCUCAGCGCACGAGUGAUGUUCGUGGGC [Xexegeus] | 276 nM
UGGCGAGUGAUGUUCGUUGUUGUAGUGUGCCGAGGACCGGUACGGCCGCCACUCGGGUUGGUUGUUGUUGUUGUUGUUGUUGUUG [whbob_SS_tryp_A] | 127 nM
UUCUUGAUGGAAACAUCGAGGAUUACUGAUACCAGUAUCGAUAGAUACCCUUGGCAGCAGAAUCAGUAAUCACGAGUGAUGUUCG [Ex Theophylline A K4 6] | 662 nM
UGUAUGGACUGAAGGAGCGGUAGAUAAACUGAGUGAUGUUCGGCAAAUAAAGGCGCAAGCCACCAGGUAGGUCGCAGUCCAUACU [KL-SSArg B1] | 289 nM
UGGAGUUGACGAAAAGUCAACUCCUGAGAAGGAGCGGACGAAAGUCCAGGUAGGUCGCUCACUACCAGUGAUGUUGGUACUAAAA | 160 nM
CGUGGUGCUCGCCAGCUGUGCGAGCGGUGGGAGGAUAUGUCGCGAGACAGAAGGCCCAGUGAUGUUGGGCAGGCUCGUAGAUCAA [Orbemaed] | 152 nM
CAGAACUUGUAUACAGGGUAUGUAAGAGAUACCAGUCAAAUUAAAGACCCUUGGCAGCUCAGGCGAGUGAUGUUCGCAGGCUAAC [Exclusion Theophylline A GF 18] | 103 nM
GACUCAUGUAGAAGGAGCGUCAGAAGCUACAGACAUGAGUGAUGUUCAUGUUAGUUGAUUUGACAGGUAGGUCGCUACAGCAGGA [KL-SSArg B15 #analogue] | 280 nM
UGGAGUUGACGAAAAGUCAACUCCUGAGAUACCAGUGACGAAAGUCACCCUUGGCAGCUCACUGCCAGUGAUGUUGGUUUAUAAA [#OpenEnded 2] | 167 nM
UGAUUUAACUGAAGGAGCGGCAAGAGAGAAGGAAAUAUAGUGAUGUUAUAUAAGAGAGAGAGCCAGGUAGGUCGCAGAGGGAGGA [ExArgB.E] | 126 nM
AGGUCACUACUACAGUGAUGUUGUGGAGAGCAGGAUAUGCAGAAAUGCAGAAGGGCUCGCUCUCAGUGACCGAAUGAAACAUUCA [Omei KL FMN A SS A v8] | 663 nM
CAAACGGGUUGGCUUGGAGACUGCAGACGCAAGGAUAUCGCGAAGACGAGAAGGUGCGGGCCUGGUAGUGAUGUUACAGUUUGGU [theeternabot_sameState_KL_FMN_A_21] | 358 nM
AAGCAGUCCCUCGAAGCCAUCGAAGAUGGGCGAGGACCGGUACGGCCGCCACUCGGAGUGAUGUUCCGAAGACUGCAAAAUAAAA [MatMod 3 - Jieux - Exclusion - Tryptophan A] | 367 nM

Same assay, conditions: Eterna round: R107; input ligand: arginine 13.2 mM

Sequence | apparent KD of K4 kissing-loop reporter
UGUGGAGAAUAUGAUACCAGCAGUGAGAGAGAGGAAGUAUAGUGAUGUUAUAUGAGAGAAUGCCCUUGGCAGCAUAAGAAGAAGG [SSTheophylB.D] | 155 nM
UCUUGCGGCGCAGGAUAUCCGUCUGUCUCCUGCGUCAUUCUGCAGUGAUGUUGCAGGUGACGGAUAGGAGAAGGGCGAACGUACA [Diinonorce] | 104 nM
AAGUCAUAGGCAGGAUAUGCAUAGUAAUAAGGCAAUAUCUACGUAUAGAGUGAUGUUUUGUACCAGGCAGAAGGGCUACAUCAGU [FMN B Excl V9 (+4A/C)] | 407 nM
AAUAGGGAGUGAUGUUCCCUCACUUAUGAUACCAGUGCCAUCGGACACCCUUGGCAGCAUACGGGCAGUGAUGUUGUUCUUGGAA [Exclusion Theophylline A GF 25] | 148 nM
GAAUAAUAUGUACCAGUGAUGUUGGUACAACGAGGACCGGUACGGCCGCCACUCGGAUACGAGUGGAUACAUCACUGACCAUUCG [(H1)-(H2)-(Trp1)-(Trp2)-(T)'-(H)'-(T)''_Design9] | 308 nM
GCGCGUCAUGUCAGCGGUGACACUGUCGAUACCAGCGCCGGAAGGCGCCCUUGGCAGCGACGUGCUGGAGUGAUGUUCCAGCGUG [#2 Exclusion - Theophylline A Attempt #26 (HarryS)] | 158 nM
CCCUCACGAGUGAUGUUCGUAGGGUACAGUCAGGAUAUCAUGCGGUUGAGAAGGGACAGAGAAGGCGGCGACGGGUUGCUUAUCU [Atenus] | 243 nM
GAUUCAGUGAUGUUGGAAGGCGAGCGGGAUACCAGCCAAGACUCAGGCCCUUGGCAGCCCACAUAUCCCACGUAGAUAGUAGCUC [Same State - Theophylline A (Freestyle 13)] | 104 nM
CGGUACGUCGCAGGAUAUGUAAAUGUAAGUGAUGUUUACAUACCAUGCUGGCGAAAGCCAGCAUGGACAGAAGGGCGACGUACCG | 354 nM
AAUUUGUAUUUAUUCUUUAAAUGUUCAGAAGGAGCGUGAAUUAUCACAGGUAGGUCGCUGAGCUAGUGAUGUUAGCUAUACACUA [#01 K4 Arginine A Exclusion] | 201 nM
